In publication doi:10.1101/839423, “Mechanism of the secretion of the lanthipeptide nisin” (bioRxiv, 2019):

B1: 10HNisT, deca-histidine tagged ABC transporter NisT (natural protein, Lactococcus lactis, UniProt Q03203 1-600, looked up)
chain: MDEVKEFTSKQFFYTLLTLPSTLKLIFQLEKRYAIYLIVLNAITAFVPLASLFIYQDLINSVLGSGRHLINIIIIYFIVQVITTVLGQLESYVSGKFDMRLSYSINMRLMRTTSSLELSDYEQADMYNIIEKVTQDSTYKPFQLFNAIIVELSSFISLLSSLFFIGTWNIGVAILLLIVPVLSLVLFLRVGQLEFLIQWQRASSERETWYIVYLLTHDFSFKEIKLNNISNYFIHKFGKLKKGFINQDLAIARKKTYFNIFLDFILNLINILTIFAMILSVRAGKLLIGNLVSLIQAISKINTYSQTMIQNIYIIYNTSLFMEQLFEFLKRESVVHKKIEDTEICNQHIGTVKVINLSYVYPNSNAFALKNINLSFEKGELTAIVGKNGSGKSTLVKIISGLYQPTMGIIQYDKMRSSLMPEEFYQKNISVLFQDFVKYELTIRENIGLSDLSSQWEDEKIIKVLDNLGLDFLKTNNQYVLDTQLGNWFQEGHQLSGGQWQKIALARTFFKKASIYILDEPSAALDPVAEKEIFDYFVALSENNISIFISHSLNAARKANKIVVMKDGQVEDVGSHDVLLRRCQYYQELYYSEQYEDNDE
notes: the nisT gene was amplified from genomic DNA of L. lactis NZ97000; 10HNisT is printed as 72.5 kDa (72.6 kDa in the methods), NisT as about 69 kDa; In the pull-down the detergent was CYMAL5; also called WT; source: L. lactis NZ9000 (pNZ-SV10HnisT), membranes solubilised with Fos-choline-16, purified (IMAC, SEC)

Experiments:
NisB, nisin dehydratase = molecular target: T1, NisB, nisin dehydratase (Lactococcus lactis, UniProt P20103 1-993); assay: pull-down; about 15 ug 10HNisT immobilised on Ni-NTA magnetic beads; 10 uM NisB, NisC or both, no substrate; 1 h at 30 C; 25 mM Tris-HCl pH 7.5, 50 mM KCl, 0.4% CYMAL5, 400 mM glutamate, 5 mM MgATP; six washes, elution with 50 mM EDTA, Western blot; conditions: both partners purified
T1 construct: Nisin biosynthesis protein NisB (dehydratase), Lactococcus lactis; printed as about 117 kDa; source: expressed and purified as described previously (Mavaro 2011; Abts 2013; Reiners 2017)
T1 sequence (looked up): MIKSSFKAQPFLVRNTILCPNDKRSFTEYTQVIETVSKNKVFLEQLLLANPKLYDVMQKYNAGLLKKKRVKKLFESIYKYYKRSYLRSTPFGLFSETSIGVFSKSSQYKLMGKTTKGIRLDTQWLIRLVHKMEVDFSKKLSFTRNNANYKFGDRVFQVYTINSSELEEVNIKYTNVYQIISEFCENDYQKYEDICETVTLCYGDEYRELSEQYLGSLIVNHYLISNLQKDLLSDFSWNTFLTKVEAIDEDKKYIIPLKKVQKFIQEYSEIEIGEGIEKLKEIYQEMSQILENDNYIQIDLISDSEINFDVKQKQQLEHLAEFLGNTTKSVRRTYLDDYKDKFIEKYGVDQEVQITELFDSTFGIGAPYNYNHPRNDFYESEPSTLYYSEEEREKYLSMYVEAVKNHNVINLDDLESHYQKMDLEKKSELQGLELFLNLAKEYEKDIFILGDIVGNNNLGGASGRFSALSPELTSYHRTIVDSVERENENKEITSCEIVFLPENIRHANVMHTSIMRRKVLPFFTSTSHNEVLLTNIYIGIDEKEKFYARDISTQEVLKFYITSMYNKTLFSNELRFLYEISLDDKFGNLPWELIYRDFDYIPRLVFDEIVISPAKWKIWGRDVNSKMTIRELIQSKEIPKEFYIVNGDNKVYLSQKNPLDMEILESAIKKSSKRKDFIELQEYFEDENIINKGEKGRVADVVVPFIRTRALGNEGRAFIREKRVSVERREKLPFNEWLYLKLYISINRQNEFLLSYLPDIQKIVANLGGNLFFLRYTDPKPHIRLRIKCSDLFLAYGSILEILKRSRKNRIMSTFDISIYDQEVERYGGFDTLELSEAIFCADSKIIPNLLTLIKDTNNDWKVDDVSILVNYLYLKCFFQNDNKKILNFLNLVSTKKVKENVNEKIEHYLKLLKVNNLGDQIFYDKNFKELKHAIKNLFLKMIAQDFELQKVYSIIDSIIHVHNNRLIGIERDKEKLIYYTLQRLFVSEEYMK

[1] = molecular target: B1; assay: pull-down; as a1, with NisB and NisC together (1:1), pre-incubated 15 min on ice with mNisA (20x molar excess to NisT); conditions: both partners purified

B1
binding result (NisB, nisin dehydratase): binds

B2: NisC, nisin cyclase (enzyme, Lactococcus lactis, UniProt Q03202 1-418, looked up)
chain: MRIMMNKKNIKRNVEKIIAQWDERTRKNKENFDFGELTLSTGLPGIILMLAELKNKDNSKIYQKKIDNYIEYIVSKLSTYGLLTGSLYSGAAGIALSILHLREDDEKYKNLLDSLNRYIEYFVREKIEGFNLENITPPDYDVIEGLSGILSYLLLINDEQYDDLKILIINFLSNLTKENNGLISLYIKSENQMSQSESEMYPLGCLNMGLAHGLAGVGCILAYAHIKGYSNEASLSALQKIIFIYEKFELERKKQFLWKDGLVADELKKEKVIREASFIRDAWCYGGPGISLLYLYGGLALDNDYFVDKAEKILESAMQRKLGIDSYMICHGYSGLIEICSLFKRLLNTKKFDSYMEEFNVNSEQILEEYGDESGTGFLEGISGCILVLSKFEYSINFTYWRQALLLFDDFLKGGKRK
notes: Nisin biosynthesis protein NisC (cyclase), Lactococcus lactis; printed as about 48 kDa; source: expressed and purified as described previously (Mavaro 2011; Abts 2013; Reiners 2017)
binding result [1]: binds
